Experimental findings from US20250129145A1 (Ablynx, published 2025) are described below.

One may read the kon as a measure of how fast the partners come together. Read a high kon as fast association. A word on the koff: it is the rate constant with which the complex falls apart. Low values mean a long-lived complex, high ones a short-lived complex.

Experiment [1] has as its target T1, human serum albumin (human, UniProt P02768 25-609).
T1 construct: Bought protein; also called HSA
The experiment in a line: SPR Biacore 8K+, HSA immobilized (C1 chip), pH 6.0, bivalent analyte fit (KD1). As to the method:
(§1) The constructs containing a 9GS and 35GS linker between the albumin-binding building blocks were selected for further characterization. The affinities of the purified ISVD expression constructs for human and mouse serum albumin (HSA and MSA, respectively) at pH 6.0 and pH 7.4 were determined on a Biacore 8K+ instrument. HSA or MSA (HSA: Sigma-Aldrich-Sigma, Cat No. A8763; MSA: Albumin Bioscience, Cat No. 2601) was immobilized on a Series S Sensor Chip C1. The fusion proteins as described in Table 7 above were injected at 9 different concentrations (between 0.6 and 2000 nM) and allowed to associate for 120 s at 30 μL/min and dissociate for 600 s. Evaluation of the sensorgrams was based on the bivalent analyte fit.
In general terms: Surface plasmon resonance follows binding to a sensor surface in real time, without labels.

For experiment [2], the target named is T2, mouse serum albumin (mouse, UniProt P07724 25-608).
T2 construct: Bought protein; also called MSA
Description: SPR Biacore 8K+, MSA immobilized (C1 chip), pH 7.4, bivalent analyte fit (ka1). As to the method:
as §1

The target of experiment [3] is T2, mouse serum albumin. The experiment in a line: SPR Biacore 8K+, MSA immobilized (C1 chip), pH 6.0, bivalent analyte fit (KD1). As to the method: as §1
For experiment [4], the target named is T2, mouse serum albumin. Description: SPR Biacore 8K+, MSA immobilized (C1 chip), pH 6.0, bivalent analyte fit (kd1). As to the method:
as §1

Experiment [5] has as its target T1, human serum albumin. The experiment in a line: SPR Biacore 8K+, HSA immobilized (C1 chip), pH 7.4, bivalent analyte fit (kd1). As to the method: as §1
Experiment [6] addresses T1, human serum albumin. Description: SPR Biacore 8K+, HSA immobilized (C1 chip), pH 7.4, bivalent analyte fit (ka1). As to the method:
as §1

Experiment [7] has as its target T2, mouse serum albumin. The experiment in a line: SPR Biacore 8K+, MSA immobilized (C1 chip), pH 6.0, bivalent analyte fit (ka1). As to the method: as §1
Experiment [8] has as its target T1, human serum albumin. Description: SPR Biacore 8K+, HSA immobilized (C1 chip), pH 7.4, bivalent analyte fit (KD1). As to the method:
as §1

Experiment [9] addresses T2, mouse serum albumin. The experiment in a line: SPR Biacore 8K+, MSA immobilized (C1 chip), pH 7.4, bivalent analyte fit (KD1). As to the method:
as §1

Experiment [10] deals with T2, mouse serum albumin. Description: SPR Biacore 8K+, MSA immobilized (C1 chip), pH 7.4, bivalent analyte fit (kd1). As to the method:
as §1

Experiment [11] addresses T1, human serum albumin. Description: SPR Biacore 8K+, HSA immobilized (C1 chip), pH 6.0, bivalent analyte fit (ka1). As to the method: as §1
The target in experiment [12] is T1, human serum albumin. The experiment in a line: SPR Biacore 8K+, HSA immobilized (C1 chip), pH 6.0, bivalent analyte fit (kd1). As to the method: as §1
The target of experiment [13] is T1, human serum albumin. Description: SPR ProteOn XPR36, HSA immobilized (GLC sensor), pH 6.0, Langmuir 1:1 fit. As to the method:
(§2) In a first experiment, the affinities of monovalent (ALB00223) and a bivalent ALB23002 construct (T032200003) for human and mouse serum albumin (HSA and MSA, respectively) at pH 6.0 and pH 7.4 were determined on a ProteOn XPR36 instrument (Bio-rad Laboratories, Inc.). HSA or MSA (HSA: Sigma-Aldrich—Sigma, Cat No. A8763; MSA: Albumin Bioscience, Cat No. 2601) was immobilized via amine coupling on a GLC sensor (short matrix, normal capacity). The constructs were injected at 6 different concentrations (between 0.95 and 500 nM) and allowed to associate for 120 s at 45 μL/min and dissociate for 600 s. Evaluation of the sensorgrams was based on the Kinetic Langmuir 1:1 (simultaneous ka/kd) fit.

The target in experiment [14] is T1, human serum albumin. Description: SPR ProteOn XPR36, HSA immobilized (GLC sensor), pH 7.4, Langmuir 1:1 fit. As to the method:
as §2

The target in experiment [15] is T2, mouse serum albumin. Description: SPR ProteOn XPR36, MSA immobilized (GLC sensor), pH 6.0, Langmuir 1:1 fit. As to the method:
as §2

Experiment [16] has as its target T2, mouse serum albumin. The experiment in a line: SPR ProteOn XPR36, MSA immobilized (GLC sensor), pH 7.4, Langmuir 1:1 fit. As to the method:
as §2

T2 sequence (P07724 25-608 limits assumed): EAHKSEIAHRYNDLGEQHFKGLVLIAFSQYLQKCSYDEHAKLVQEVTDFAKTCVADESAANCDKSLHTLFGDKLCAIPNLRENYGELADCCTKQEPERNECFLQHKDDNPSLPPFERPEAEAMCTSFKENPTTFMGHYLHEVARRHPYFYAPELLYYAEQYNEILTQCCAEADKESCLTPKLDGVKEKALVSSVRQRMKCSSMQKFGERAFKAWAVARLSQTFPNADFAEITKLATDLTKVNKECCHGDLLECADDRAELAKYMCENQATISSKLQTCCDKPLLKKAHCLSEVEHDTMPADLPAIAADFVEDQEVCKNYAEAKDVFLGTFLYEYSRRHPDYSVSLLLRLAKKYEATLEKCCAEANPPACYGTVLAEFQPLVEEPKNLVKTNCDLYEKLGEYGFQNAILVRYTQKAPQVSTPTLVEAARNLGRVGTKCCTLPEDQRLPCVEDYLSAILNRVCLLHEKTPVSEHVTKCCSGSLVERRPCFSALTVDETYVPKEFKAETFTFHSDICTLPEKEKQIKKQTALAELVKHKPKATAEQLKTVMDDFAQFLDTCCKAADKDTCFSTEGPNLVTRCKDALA

B1: T026301365 (VHH, not shown: large carriers; small tags and cut ends)
chain: EVQLVESGGGVVQPGGSLRLSCAASGFTFRSFGMSWVRQAPGKGPEWVSSISGSGSDTLYADSVKGRFTISRDNSKNTLYLQMNSLRPEDTALYYCTIGGSLSRSSQGTLVTVSSGGGGSGGGGSGGGGSGGGGSGGGGSGGGGSGGGGSEVQLVESGGGVVQPGGSLRLSCAASGFTFRSFGMSWVRQAPGKGPEWVSSISGSGSDTLYADSVKGRFTISRDNSKNTLYLQMNSLRPEDTALYYCTIGGSLSRSSQGTLVTVSSA
notes: Tetravalent ISVD fusion protein made in P. pastoris; X and Y are undisclosed target ISVDs; also called X-9GS-Y-9GS-ALB23002-35GS-Alb223
Turning to B1, the Kd stood at 8.8 nM with human serum albumin [1], 100 nM with mouse serum albumin [3], 9.9 nM in the experiment with human serum albumin [8] and 140 nM with mouse serum albumin [9]. In addition, the kon turned out to be 32000 M⁻¹ s⁻¹ with mouse serum albumin [2], 160000 M⁻¹ s⁻¹ with human serum albumin [6], 58000 M⁻¹ s⁻¹ with mouse serum albumin [7] and 180000 M⁻¹ s⁻¹ with human serum albumin [11]. For the same molecule, the koff came out at 0.0059 s⁻¹ with mouse serum albumin [4], 0.0016 s⁻¹ with human serum albumin [5], 0.0043 s⁻¹ with mouse serum albumin [10] and 0.0016 s⁻¹ with human serum albumin [12].

B2: T026301360 (VHH, not shown: large carriers; small tags and cut ends)
chain: EVQLVESGGGVVQPGGSLRLSCAASGFTFRSFGMSWVRQAPGKGPEWVSSISGSGSDTLYADSVKGRFTISRDNSKNTLYLQMNSLRPEDTALYYCTIGGSLSRSSQGTLVTVSSGGGGSGGGSEVQLVESGGGVVQPGGSLRLSCAASGFTFRSFGMSWVRQAPGKGPEWVSSISGSGSDTLYADSVKGRFTISRDNSKNTLYLQMNSLRPEDTALYYCTIGGSLSRSSQGTLVTVSSA
notes: Tetravalent ISVD fusion protein made in P. pastoris; X and Y are undisclosed target ISVDs; also called X-9GS-Y-9GS-ALB23002-9GS-Alb223; X-Y-Alb23002-Alb223
B2: the Kd amounted to 9 nM with human serum albumin [1], 210 nM with mouse serum albumin [3], 12 nM in the experiment with human serum albumin [8] and 210 nM with mouse serum albumin [9]. In addition, the on-rate (kon) is 170000 M⁻¹ s⁻¹ with mouse serum albumin [2], 120000 M⁻¹ s⁻¹ with human serum albumin [6], 190000 M⁻¹ s⁻¹ in the experiment with mouse serum albumin [7] and 170000 M⁻¹ s⁻¹ with human serum albumin [11]. For the same molecule, the koff with mouse serum albumin [4] was 0.04 s⁻¹; with human serum albumin [5], 0.0015 s⁻¹; with mouse serum albumin [10] it was 0.034 s⁻¹; in the experiment with human serum albumin [12], 0.0015 s⁻¹.

B3: T032200003 (VHH)
chain: EVQLVESGGGVVQPGGSLRLSCAASGFTFRSFGMSWVRQAPGKGPEWVSSISGSGSDTLYADSVKGRFTISRDNSKNTLYLQMNSLRPEDTALYYCTIGGSLSRSSQGTLVTVSSGGGGSGGGGSGGGGSGGGGSGGGGSGGGGSGGGGSEVQLVESGGGVVQPGGSLRLSCAASGFTFRSFGMSWVRQAPGKGPEWVSSISGSGSDTLYADSVKGRFTISRDNSKNTLYLQMNSLRPEDTALYYCTIGGSLSRSSQGTLVTVSS
notes: also called ALB23002-35GS-ALB23002; bivalent ALB23002 construct
As to B3, the Kd in the experiment with human serum albumin [13] was found to be 0.512 nM; with human serum albumin [14], 0.865 nM; with mouse serum albumin [15], 1.61 nM; with mouse serum albumin [16], 1.96 nM. Moreover, the koff amounted to 0.000388 s⁻¹ with human serum albumin [13], 0.000461 s⁻¹ with human serum albumin [14], 0.00164 s⁻¹ in the experiment with mouse serum albumin [15] and 0.00167 s⁻¹ in the experiment with mouse serum albumin [16]. In addition, the kon with human serum albumin [13] amounted to 759000 M⁻¹ s⁻¹; in the experiment with human serum albumin [14], 533000 M⁻¹ s⁻¹; in the experiment with mouse serum albumin [15], 1.02e+06 M⁻¹ s⁻¹; with mouse serum albumin [16], 854000 M⁻¹ s⁻¹.

B4: ALB00223 (VHH)
VHH: EVQLVESGGGVVQPGGSLRLSCAASGFTFRSFGMSWVRQAPGKGPEWVSSISGSGSDTLYADSVKGRFTISRDNSKNTLYLQMNSLRPEDTALYYCTIGGSLSRSSQGTLVTVSS
notes: also called ALB00223-A; Alb223
For the molecule B4, the Kd with human serum albumin [13] came to 0.69 nM; with human serum albumin [14], 1.37 nM; with mouse serum albumin [15], 6.02 nM; with mouse serum albumin [16] it was 9.09 nM. Moreover, the koff with human serum albumin [13] was determined as 0.000593 s⁻¹; in the experiment with human serum albumin [14], 0.000809 s⁻¹; in the experiment with mouse serum albumin [15], 0.00618 s⁻¹; in the experiment with mouse serum albumin [16], 0.00697 s⁻¹. Also, the kon with human serum albumin [13] is 853000 M⁻¹ s⁻¹; in the experiment with human serum albumin [14] it was 592000 M⁻¹ s⁻¹; in the experiment with mouse serum albumin [15], 1.03e+06 M⁻¹ s⁻¹; in the experiment with mouse serum albumin [16] it was 767000 M⁻¹ s⁻¹.
